Biological target: the molecule itself
Assay: gel filtration chromatography (self-association)

B1: E. coli-produced, properly folded RSV G0-dTM (67-298) protein of the RSV-A2 strain, C-terminal His6 tag (other)
chain: HKVTPTTAIIQDATSQIKNTTPTYLTQNPQLGISPSNPSEITSQITTILASTTPGVKSTLQSTTVKTKNTTTTQTQPSKPTTKQRQNKPPSKPNNDFHFEVFNFVPCSICSNNPTCWAICKRIPNKKPGKKTTTKPTKKPTLKTTKKDPKPQTTKSKEVPTTKPTEEPTINTTKTNIITTLLTSNTTGNPELTSQMETFHSTSSEGNPSPSQVSTTSEYPSQPSSPPNTPRQHHHHHH
notes: also called REG; bacterially produced RSV-A2 G
  binding result: binds

From patent US20160304565A1 (US Dept. of Health and Human Services, published 2016)
